Target: T1, LMP1重组蛋白抗原 (SEQ ID NO.2, 213-408aa of LMP1, expressed in E. coli) (Epstein-Barr virus, UniProt P29362 187-404)
T1 construct: Recombinant fragment purified with NTA buffers (a tag from the expression vector is likely but is not described); also called LMP1蛋白
T1 chain: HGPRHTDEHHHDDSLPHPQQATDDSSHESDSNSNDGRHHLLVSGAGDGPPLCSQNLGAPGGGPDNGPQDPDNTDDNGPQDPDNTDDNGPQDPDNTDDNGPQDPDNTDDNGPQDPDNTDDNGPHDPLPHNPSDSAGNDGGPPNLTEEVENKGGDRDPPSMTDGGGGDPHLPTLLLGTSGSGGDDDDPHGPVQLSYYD
Assay: non-competitive ELISA by Beatty's method, power curve model

B1: 抗LMP1单克隆抗体 7B63B10 (secreted by hybridoma cell line 7B63B10, CCTCC NO: C2019160) (antibody, IgG2b, V domains shown)
VH: EVKLVESGGGFVQPGGSRKLSCAASGFTFSSFGMHWVRQAPEKGLEWVAYISSGSSTIYYADTVKGRFTISRDNPKNTLFLQMTSLRSEDTAMYYCARDWVLDYWGQGTTLTVSS
VL: DIVITQTPLSLPVSLGDQASVSCRSSQSLVHSNGNTYLHWYLQKPGQSPKLLIYKVSNRFSGVPDRFSGSGSGTDFTLNISRVEAEDLGVYFCSQSTHVPFTFGGGTKLEIKR
notes: Mouse (Balb/c) hybridoma antibody, Ig type IgG2b; also called LMP1 7B63B10; 本发明单克隆抗体
- Ka: 9e+09 M⁻¹

Reference: patent publication CN111647564A (LI XIN; CHONG TUOTUO; LONG YUFEI, dated 2020)
